PMC7888556 (Biochemical and biophysical research communications, 2017)

Target: T1, CEP192-WT (residues 507-1065 of human CEP192, C-terminal V5 and 6XHis tags) (human, UniProt Q8TEP8 507-1065)
T1 sequence (looked up): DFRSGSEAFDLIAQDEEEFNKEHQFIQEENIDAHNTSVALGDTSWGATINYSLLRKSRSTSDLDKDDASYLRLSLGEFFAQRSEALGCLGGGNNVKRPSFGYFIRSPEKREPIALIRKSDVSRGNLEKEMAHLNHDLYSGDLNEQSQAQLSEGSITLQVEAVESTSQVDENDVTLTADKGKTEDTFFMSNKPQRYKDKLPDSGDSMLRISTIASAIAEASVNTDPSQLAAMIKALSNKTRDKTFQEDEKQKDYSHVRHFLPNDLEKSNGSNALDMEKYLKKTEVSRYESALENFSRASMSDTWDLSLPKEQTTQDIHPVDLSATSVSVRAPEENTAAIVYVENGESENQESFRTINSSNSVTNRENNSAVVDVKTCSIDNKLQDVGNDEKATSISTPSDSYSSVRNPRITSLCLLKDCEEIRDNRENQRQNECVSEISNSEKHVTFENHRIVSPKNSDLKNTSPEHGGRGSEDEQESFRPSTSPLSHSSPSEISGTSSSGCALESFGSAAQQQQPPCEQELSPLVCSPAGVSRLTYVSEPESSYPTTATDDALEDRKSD
Assay: pull-down

B1: Human PP1β (type one protein phosphatase, purified) (enzyme, UniProt P62140 1-327, looked up)
chain: MADGELNVDSLITRLLEVRGCRPGKIVQMTEAEVRGLCIKSREIFLSQPILLELEAPLKICGDIHGQYTDLLRLFEYGGFPPEANYLFLGDYVDRGKQSLETICLLLAYKIKYPENFFLLRGNHECASINRIYGFYDECKRRFNIKLWKTFTDCFNCLPIAAIVDEKIFCCHGGLSPDLQSMEQIRRIMRPTDVPDTGLLCDLLWSDPDKDVQGWGENDRGVSFTFGADVVSKFLNRHDLDLICRAHQVVEDGYEFFAKRQLVTLFSAPNYCGEFDNAGGMMSVDETLMCSFQILKPSEKKAKYQYGGLNSGRPVTPPRTANPPKKR
- binding result: binds
